This note sets out measurements from patent US20260265404A1 (FRED HUTCHINSON CANCER CENTER, published 2026).

Test [1] concerns the target T1, human full-length CD33 (CD33^FL) (human, UniProt P20138 18-364).
T1 construct: also called Siglec-3
In words: flow cytometry on REH subline expressing CD33^FL. (In general: A flow cytometer gives signals particle by particle.)

In test [2] the target is T1, human full-length CD33 (CD33^FL). In words: flow cytometry on parental CD33+ ML-1 cells against ML-1 CD33 KO cells (endogenous CD33).

Substitutions are numbered along the chain they refer to.

T1 sequence (P20138 18-364): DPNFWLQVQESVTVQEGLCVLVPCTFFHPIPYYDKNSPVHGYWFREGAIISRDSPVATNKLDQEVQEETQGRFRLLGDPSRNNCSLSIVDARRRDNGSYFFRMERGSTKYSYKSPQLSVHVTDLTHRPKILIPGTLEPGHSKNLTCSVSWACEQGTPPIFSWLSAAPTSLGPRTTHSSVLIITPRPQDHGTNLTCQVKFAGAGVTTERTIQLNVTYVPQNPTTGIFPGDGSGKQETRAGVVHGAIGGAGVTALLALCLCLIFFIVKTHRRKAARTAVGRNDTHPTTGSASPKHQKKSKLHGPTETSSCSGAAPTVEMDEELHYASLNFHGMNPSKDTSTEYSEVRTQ

B1: 2D3 antibody (human CD33V-set antibody clone, hybridoma-derived) (antibody, V domains shown)
VH: EVQLLESGGGLVQPGGSLSLSCAASGFTFSIYAMSWVRQAPGKGLEWVSAISDSGGTTYYADSVKGRFTISRDNSKNMLYLEMNSLRAEDTAIYYCAKRTRYFNGMDVWGQGTTVTVSS
VL: EIVMTQSPATLSLSPGERATLSCRASQSGSSSFLSWYQQKPGQAPRLLIYGASTRATGIPARFSGSGSGTDFTLTISSLQPEDFAVYYCQQDYNLPFTFGPGTKVDIK
notes: also called clone 2D3
Regarding B1, the binding result in test [1] is recorded as “binds”.

B2: 1H10 antibody (human CD33^PAN antibody clone, hybridoma-derived) (antibody, V domains shown)
VH: QVQLVQSGAEVKKPGASVKVSCKGSGYIFTSYDMHWVRQAPGQGLEWMGIIDPSGGSTSYAQKFQGRVTMTRDTSMSTVYMELSSLRSEDTAVYYCTRDYSWSYFDYWGQGTLVTVSS
VL: AIQMTQSPSSLSASVGDRVTITCRASQGIRIYLGWYQQKPGKAPKLLIYATSSLQSGVPSRFSGSGSGTDFTLTISSLQPEDFATYYCLQDYNYPWTFGQGTKVEIK
notes: also called clone 1H10
On to B2, for which, in test [1], the binding result was “binds”.

B3: 1A9 antibody (human CD33^PAN antibody clone, hybridoma-derived) (antibody, V domains shown)
VH: EVQLVESGGGLVQPGGSLRLSCAASGFTFSIYDMHWVRQATGKGLEWVSAIGTAGDTYYAGSVKGRFTISRENAKNSLYLQMNSLRAGDTAVYYCAREYSGYYFDYWGQGTLVTVSS
VL: B2 VL with G28D, I31N, Y32D, L46I, A50G, T51A, L73F, D91E, W96C, V104L
notes: also called clone 1A9
Turning to B3, in test [2], the binding result is “binds”.

B4: 1E6 antibody (human CD33^PAN antibody clone, hybridoma-derived) (antibody, V domains shown)
VH: QVQLVESGGGVVQPGRSLRLSCAASGFTFSSYDIHWVRQAPGKGLEWVAVIWYDGSHNYYSDSVKGRFTISRDNSKNTLYLQMNSLRAEDTAVYYCARDYSGSYYDYWGQGTLVTVSS
VL: B2 VL with I31N, Y32D, T51A, S53N, N93S, W96R
notes: also called clone 1E6
Regarding B4, the binding result in test [2] is “binds”.

B5: 1D2 antibody (human CD33^PAN antibody clone, hybridoma-derived) (antibody, V domains shown)
VH: B4 VH with H57Q, N58K, S61A
VL: B2 VL with I31N, Y32D, K45E, T74I, N93S, W96R
notes: also called clone 1D2
In the case of B5, the binding result in test [2] is on record as “binds”.

B6: 1B9 antibody (human CD33^PAN antibody clone, hybridoma-derived) (antibody, V domains shown)
VH: B4 VH with T28I, Y105F
VL: B2 VL with G28D, I31N, Y32D, Q37L, K39R, T51A, N93S, W96R, K103T
notes: also called clone 1B9
In the case of B6, the binding result in test [2] was “binds”.

B7: 1H8 antibody (human CD33V-set antibody clone, hybridoma-derived) (antibody, V domains shown)
VH: QVQLVESGGGVVQPGGSLRLSCAASGFTFGSYGMHWVRQAPGKGLEWVAVIWYDGSNEYYADSVKGRFTVSRDNSKHTLYLQMNRLRAEDTAVYYCARDLDYDSSGGDYWGQGILVLVSS
VL: EIVLTQSPDFQSVTPKEKVTITCRASQNIGGNLHWYQQKPDQSPKLLIRYATQPFSGVPSRFGGSGSGTDFTLTINSLEAEDAATYYCHQSSSLPLTFGGGTKVEIK
notes: also called clone 1H8
With B7, the binding result in test [1] is given as “binds”.
